± gives the standard deviation of the averaged measurements.
B1: library; a variant is named by its letters at N, in order (parent)
chain: GCUGUCACCGGUGCUUGGUACGUUAUAUUCAGCCGGUCUGAUGAGUCUNNNNNNAGACGAAACAGC

Columns and labels:
(6R,S)-folinic acid [1] = variants of: B1; assay: normalized RNA/DNA level without ligand (relative to sTRSVctl = 100) (log10 (% of sTRSVctl)); HEK293T overexpressing SLC46A1; higher = less ribozyme self-cleavage, higher mRNA level; conditions: without (6R,S)-folinic acid; ligand present: no
In short: (§1)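 HEK293T cells were transfected with library plasmids carrying ribozyme switches linked to an mCherry reporter, or an eGFP reporter in some ligand experiments, at 4 µg per well of a 6-well plate, with any ligand added 1 h beforehand. After 72 h, total RNA was extracted with EDTA, reverse-transcribed, amplified, barcoded and sequenced. RNA level was defined as RNA reads over DNA reads, normalized to a spiked-in non-cleaving sequence or to the top-ranked sequences. That value was multiplied by 100 and converted to log10, the top set was 25 sequences, and only sequences with ≥100 DNA reads were retained.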

(6R,S)-folinic acid [2] = variants of: B1; assay: normalized RNA/DNA level with ligand (relative to sTRSVctl = 100) (log10 (% of sTRSVctl)); HEK293T overexpressing SLC46A1; ligand concentration (+) RNA-Seq: 6 mM; higher = less ribozyme self-cleavage, higher mRNA level; conditions: with (6R,S)-folinic acid; ligand present: yes
In short: as §1

Variant | normalized RNA/DNA level without ligand (log10) ((6R,S)-folinic acid [1]) | normalized RNA/DNA level with ligand (log10) ((6R,S)-folinic acid [2])
ACAGCU | 2.06 ± 0.024 | 2.059 ± 0.004
ACAGCC | 2.03 ± 0.0033 | 2.04 ± 0.045
UCAGCA | 2.032 ± 0.016 | 2.062 ± 0.02
UCAGCU | 2.046 ± 0.011 | 2.032 ± 0.0099
UCAGCC | 2.044 ± 0.0032 | 1.99 ± 0.039
CAUUAA | 1.953 ± 0.0081 | 1.976 ± 0.014
CAUUAG | 1.94 ± 0.037 | 1.985 ± 0.0055
CCAGCG | 1.97 ± 0.025 | 1.99 ± 0.027
CCAGCA | 2.01 ± 0.031 | 1.985 ± 0.0059
CCAGCU | 2.087 ± 0.018 | 2.036 ± 0.013
GCACAG | 1.936 ± 0.0048 | 2 ± 0.024
GCACAU | 1.991 ± 0.0072 | 2.01 ± 0.025
UCAGUU | 2.008 ± 0.02 | 2 ± 0.049
UCAGUG | 1.78 ± 0.018 | 1.972 ± 0.011
UCAGUA | 1.98 ± 0.021 | 2 ± 0.046
UAUUAU | 1.931 ± 0.012 | 1.985 ± 0.01
CCAUCA | 2.026 ± 0.0086 | 2.02 ± 0.05
CCAUCG | 2.012 ± 0.01 | 2.017 ± 0.014
CCAUCU | 2.071 ± 0.0041 | 2.07 ± 0.035
CCAUCC | 2.094 ± 0.013 | 2.06 ± 0.021
ACACCU | 2.0447 ± 0.0018 | 2.05 ± 0.048
ACACCC | 2.041 ± 0.0034 | 1.97 ± 0.045
CCAUUC | 2.045 ± 0.02 | 2.03 ± 0.048
CCAUUA | 1.9907 ± 0.00033 | 2 ± 0.023

Variant | normalized RNA/DNA level without ligand (log10) ((6R,S)-folinic acid [1]) | normalized RNA/DNA level with ligand (log10) ((6R,S)-folinic acid [2])
GCAAUA | 2.014 ± 0.013 | 2.03 ± 0.026
GCAAUU | 2.039 ± 0.01 | 2.04 ± 0.042
GCAAUC | 2.03 ± 0.02 | 2.03 ± 0.038
GCAAUG | 1.98 ± 0.0061 | 2.033 ± 0.0084
UCAACG | 1.909 ± 0.0028 | 2 ± 0.034
UCAACA | 1.987 ± 0.0049 | 2.017 ± 0.018
GAUUUG | 1.95 ± 0.023 | 2.03 ± 0.047
GAUUUU | 2.011 ± 0.0062 | 2.026 ± 0.0072
GAUUUC | 2.055 ± 0.017 | 2 ± 0.03
ACAGGC | 2.03 ± 0.021 | 2.01 ± 0.032
ACAGGA | 1.948 ± 0.011 | 2.03 ± 0.037
GAUUAC | 1.987 ± 0.014 | 2.017 ± 0.017
CAUUUC | 2.036 ± 0.0064 | 2 ± 0.037
CAUUUA | 1.97 ± 0.013 | 1.999 ± 0.013
AAUUUA | 1.966 ± 0.012 | 1.99 ± 0.02
AAUUUC | 2.031 ± 0.0025 | 2.01 ± 0.049
GAUUCC | 2.064 ± 0.0098 | 2.043 ± 0.019
GAUUCG | 1.978 ± 0.0021 | 2.01 ± 0.042
CCAAAC | 2.017 ± 0.015 | 2.03 ± 0.044
CCAAAU | 1.963 ± 0.013 | 2 ± 0.035
CCAAAG | 1.899 ± 0.0025 | 1.99 ± 0.025
AAUUCG | 1.974 ± 0.012 | 2.03 ± 0.038
AAUUCA | 1.9759 ± 0.00044 | 2 ± 0.041
AAUUCC | 2.059 ± 0.018 | 2.036 ± 0.019

Variant | normalized RNA/DNA level without ligand (log10) ((6R,S)-folinic acid [1]) | normalized RNA/DNA level with ligand (log10) ((6R,S)-folinic acid [2])
AAUUCU | 2.0312 ± 0.0016 | 2.03 ± 0.027
ACAUAG | 1.935 ± 0.013 | 2.02 ± 0.021
ACAUAU | 1.94 ± 0.037 | 2.01 ± 0.022
UCAUGA | 2.01 ± 0.028 | 2.053 ± 0.019
UCAUGU | 1.942 ± 0.0042 | 2.01 ± 0.039
UCAUGG | 1.947 ± 0.0059 | 2.03 ± 0.048
GCAUUC | 2.03 ± 0.052 | 2.023 ± 0.0067
AAUGUU | 1.972 ± 0.0068 | 1.993 ± 0.0074
AAUGUG | 1.81 ± 0.0053 | 1.999 ± 0.013
AAUGUA | 1.9489 ± 1.8e-05 | 2.01 ± 0.04
UCAGAG | 1.75 ± 0.026 | 1.98 ± 0.0089
UCAGAA | 1.9353 ± 0.0018 | 2.017 ± 0.013
UCAGAC | 2.046 ± 0.0027 | 1.997 ± 0.016
GCAUCC | 2.059 ± 0.0098 | 2.048 ± 0.0088
GCAUCA | 2.023 ± 0.013 | 2.03 ± 0.022
GCAUCG | 2.01 ± 0.029 | 2.061 ± 0.011
GCAUCU | 2.054 ± 0.0071 | 2.04 ± 0.058
ACACGG | 1.934 ± 0.013 | 2.02 ± 0.04
ACACGU | 2.023 ± 0.013 | 2.03 ± 0.022
ACACGC | 1.981 ± 0.015 | 1.99 ± 0.049
ACACAG | 1.953 ± 0.0027 | 2.01 ± 0.048
ACACAC | 2.019 ± 0.0045 | 2.01 ± 0.058
ACACAA | 1.968 ± 0.019 | 1.98 ± 0.045
GCAUGC | 2.025 ± 0.0027 | 1.999 ± 0.0055

Variant | normalized RNA/DNA level without ligand (log10) ((6R,S)-folinic acid [1]) | normalized RNA/DNA level with ligand (log10) ((6R,S)-folinic acid [2])
GCAUGU | 1.983 ± 0.0026 | 2.02 ± 0.055
GCAUGG | 1.944 ± 0.0075 | 2.04 ± 0.028
ACAAAU | 1.952 ± 0.015 | 2.01 ± 0.053
ACAAAA | 1.97 ± 0.0049 | 1.99 ± 0.033
CCAUGG | 1.986 ± 0.013 | 2.016 ± 0.015
CCAUGA | 1.981 ± 0.0035 | 2 ± 0.059
CCAUGC | 2.054 ± 0.015 | 2.05 ± 0.04
GCAGCU | 2.03 ± 0.029 | 2.02 ± 0.045
GCAGCA | 2.048 ± 0.018 | 2.06 ± 0.037
GCAGCC | 2 ± 0.024 | 2.02 ± 0.025
UCACAG | 1.9 ± 0.0082 | 1.979 ± 0.012
UCACAA | 1.982 ± 0.017 | 1.98 ± 0.025
UCACAC | 2.048 ± 0.015 | 2.023 ± 0.016
UCACAU | 1.986 ± 0.0076 | 2.02 ± 0.048
GCACUA | 2.019 ± 0.018 | 2.01 ± 0.022
GCACUU | 2.001 ± 0.017 | 2.01 ± 0.021
GCACUC | 2.022 ± 0.0041 | 2.022 ± 0.0086
GCACUG | 2 ± 0.024 | 2.02 ± 0.056
CCACUC | 1.9795 ± 0.0011 | 2.008 ± 0.02
CCACUG | 2.02 ± 0.041 | 2.074 ± 0.018
CCACUA | 2.018 ± 0.0041 | 2.02 ± 0.015
GCAGGU | 1.934 ± 0.012 | 1.99 ± 0.03
GCAGGC | 1.882 ± 0.0089 | 1.86 ± 0.042
UCAGGC | 2.031 ± 0.003 | 2.03 ± 0.057

Variant | normalized RNA/DNA level without ligand (log10) ((6R,S)-folinic acid [1]) | normalized RNA/DNA level with ligand (log10) ((6R,S)-folinic acid [2])
CCAUAC | 1.991 ± 0.012 | 1.96 ± 0.059
CCAUAG | 1.922 ± 0.0071 | 1.99 ± 0.02
CCAUAA | 1.98 ± 0.023 | 1.97 ± 0.027
CCAUAU | 1.961 ± 0.0029 | 1.99 ± 0.032
UCAUUA | 2.003 ± 0.014 | 2.04 ± 0.023
CAUUGC | 2.021 ± 0.0021 | 1.99 ± 0.019
CAUUGG | 1.955 ± 0.011 | 2.01 ± 0.026
CAUUGA | 2.019 ± 0.0027 | 2.01 ± 0.055
CAUUGU | 2.012 ± 0.0069 | 2.02 ± 0.064
ACAGUU | 2 ± 0.012 | 2.01 ± 0.046
ACAGUC | 2.0723 ± 0.0011 | 2.054 ± 0.0027
ACAGUA | 1.947 ± 0.0079 | 1.99 ± 0.043
GCAGAA | 1.942 ± 0.0071 | 2.01 ± 0.044
GCAGAC | 1.98 ± 0.037 | 2.02 ± 0.022
GCAGAG | 1.808 ± 0.01 | 2 ± 0.074
GCAAAU | 2 ± 0.022 | 2.03 ± 0.03
GCAAAG | 1.95 ± 0.0068 | 2.018 ± 0.012
GCAAAC | 1.974 ± 0.0046 | 2.02 ± 0.023
GAUUGC | 1.974 ± 0.015 | 2 ± 0.036
GAUUGG | 1.973 ± 0.017 | 2.028 ± 0.019

From the supplement of paper PMC6757056
